Measured values: PMC5175136, “Structural basis of the substrate preference towards CMP for a thymidylate synthase MilA involved in mildiomycin biosynthesis” (Scientific Reports, 2016)

Experiments:
MilA [1] = target: T1, MilA (Streptomyces rimofaciens, UniProt B4Y380, K133R/A176S); experiment: HPLC/LC-MS of CMP and dCMP competition reaction; assay type: biochemical; conditions: 1 mM CMP and dCMP together, 2 mM tetrahydrofolate, 15 mM paraformaldehyde, pH 7.5, 37 °C
T1 construct: full-length, C-terminal 6xHis tag (LEHHHHHH) kept, pET28a, expressed in E. coli BL21(DE3); homodimer, active site from both subunits
T1 sequence (B4Y380 entry or part of it K133R/A176S): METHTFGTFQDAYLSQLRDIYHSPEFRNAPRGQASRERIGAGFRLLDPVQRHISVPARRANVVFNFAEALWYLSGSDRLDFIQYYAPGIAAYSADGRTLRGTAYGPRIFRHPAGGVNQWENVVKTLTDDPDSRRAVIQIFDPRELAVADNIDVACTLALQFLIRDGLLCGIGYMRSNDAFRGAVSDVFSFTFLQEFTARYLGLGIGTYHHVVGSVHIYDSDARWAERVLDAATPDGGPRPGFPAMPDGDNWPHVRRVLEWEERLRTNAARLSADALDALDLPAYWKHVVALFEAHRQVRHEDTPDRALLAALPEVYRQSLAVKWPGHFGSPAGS

MilA [2] = target: T2, MilA (Streptomyces rimofaciens, UniProt B4Y380, A176S); experiment: HPLC/LC-MS of CMP and dCMP competition reaction; assay type: biochemical; conditions: 1 mM CMP and dCMP together, 2 mM tetrahydrofolate, 15 mM paraformaldehyde, pH 7.5, 37 °C
T2 construct: full-length, C-terminal 6xHis tag (LEHHHHHH) kept, pET28a, expressed in E. coli BL21(DE3); homodimer, active site from both subunits
T2 sequence (B4Y380 entry or part of it A176S): as the sequence (B4Y380 entry or part of it K133R/A176S) above, with R133K counted along it

MilA [3] = target: T3, MilA (Streptomyces rimofaciens, UniProt B4Y380); experiment: X-ray crystal structure, […] Å; assay type: binding; conditions: crystals grown with hmCMP, pH 6.5, 14 °C; active site
T3 construct: full-length, C-terminal 6xHis tag (LEHHHHHH) kept, pET28a, expressed in E. coli BL21(DE3); homodimer, active site from both subunits
T3 sequence (B4Y380 1-334): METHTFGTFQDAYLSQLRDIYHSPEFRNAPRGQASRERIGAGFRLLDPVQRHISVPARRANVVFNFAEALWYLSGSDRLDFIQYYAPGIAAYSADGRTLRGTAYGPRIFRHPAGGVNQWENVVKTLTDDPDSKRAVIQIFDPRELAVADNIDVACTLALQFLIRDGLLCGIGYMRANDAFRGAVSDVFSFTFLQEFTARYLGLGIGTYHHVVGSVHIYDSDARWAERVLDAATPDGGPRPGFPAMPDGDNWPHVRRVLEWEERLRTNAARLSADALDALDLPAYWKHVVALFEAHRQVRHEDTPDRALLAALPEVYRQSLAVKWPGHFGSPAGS

[4] = substrate: Nc1ccn([C@@H]2O[C@H](COP(=O)(O)O)[C@@H](O)[C@H]2O)c(=O)n1; experiment: HPLC of hmCMP formation, Michaelis-Menten fit; assay type: biochemical, Streptomyces rimofaciens; conditions: CH2THF co-substrate saturating (from 2 mM tetrahydrofolate), 50 mM Tris-HCl pH 7.5, 37 °C
Description: HPLC of hmCMP formation, Michaelis-Menten fit on MilA

[5] = substrate: Nc1ccn([C@H]2C[C@H](O)[C@@H](COP(=O)(O)O)O2)c(=O)n1; experiment: HPLC of hmdCMP formation, Michaelis-Menten fit; assay type: biochemical, Streptomyces rimofaciens; conditions: CH2THF co-substrate saturating (from 2 mM tetrahydrofolate), 50 mM Tris-HCl pH 7.5, 37 °C
Description: HPLC of […] formation, Michaelis-Menten fit on MilA

[6] = target: the molecule itself; experiment: crystal structure; hanging-drop vapor diffusion at 14 °C; apo MilA (PEG 3350, lithium sulfate, Tris-HCl pH 8.5) and complexes with CMP, dCMP or hmCMP (sodium cacodylate pH 6.5, sodium acetate); space group P3(2)21, two molecules in the asymmetric unit related by a non-crystallographic twofold rotation
[7] = crystal structure of complex at 1.65 Å
[8] = crystal structure of complex at 2.10 Å

Molecule: Nc1ccn([C@H]2C[C@H](O)[C@@H](COP(=O)(O)O)O2)c(=O)n1 [dCMP]
- HPLC/LC-MS of CMP and dCMP competition reaction (MilA [1]): double mutant MilA A176S/K133R, but its efficiency to dCMP is slightly affected
- HPLC/LC-MS of CMP and dCMP competition reaction (MilA [2]): significantly enhanced its catalytic efficiency toward dCMP

Molecule: Nc1nc(=O)n([C@@H]2O[C@H](COP(=O)(O)O)[C@@H](O)[C@H]2O)cc1CO [hmCMP]
- X-ray crystal structure, 1.80 Å (MilA [3]): MilA‒hmCMP complexes have been deposited in the Protein Data Bank

Molecule: Nc1ccn([C@@H]2O[C@H](COP(=O)(O)O)[C@@H](O)[C@H]2O)c(=O)n1 [CMP]
- HPLC/LC-MS of CMP and dCMP competition reaction (MilA [2]): MilA-A176S could still catalyze the hydroxymethylation reaction of CMP

B1: MilA, CMP hydroxymethylase from Streptomyces rimofaciens ZJU5119 (wild type, C-terminally His-tagged) (enzyme, UniProt B4Y380 1-334, looked up)
chain: T3 sequence (B4Y380 1-334)
notes: MilA, CMP hydroxymethylase of the mildiomycin biosynthetic gene cluster, Streptomyces rimofaciens ZJU5119; full-length, cloned into pET28a; They are disordered in the crystal; also called WT MilA; MilA-WT; source: E. coli BL21(DE3), purified (Ni-NTA, Superdex 200 gel filtration); not shown: His6, C-terminal, kept
- Km [4]: 0.0719 (0.0076) mM
- kcat [4, 7]: 0.047 s⁻¹
- kcat/Km [4, 7]: 653 M⁻¹ s⁻¹
- Km [5]: 0.245 (0.0589) mM
- kcat [5, 8]: 0.032 s⁻¹
- kcat/Km [5, 8]: 131 M⁻¹ s⁻¹
- stoichiometry N [6]: 2
